According to IntAct's records for PubMed 19008859:

B1: Myocardin-related transcription factor A (Mus musculus), Q8K4J6 (parent)
chain: MTLLEPEMLMMAVQSVLQLKLQQRRTREELVSQGIMPPLKSPAAFHEQRRSLERARTEDYLKRKIRSRPERAELVRMHILEETSAEPSLQAKQLKLKRARLADDLNEKIAQRPGPMELVEKNILPVESSLKEAIIVGQVNYPKVADSSSFDEDSSDALSPEQPASHESQGSVPSPLESRVSDPLPSATSISPTQVLSQLPMAPDPGETLFLAEQPPLPPAPLLPPSLANGSIVPTAKPAPTLIKQSQPKSASEKSQRSKKAKELKPKVKKLKYHQYIPPDQKQDKGAPAMDSSYAKILQQQQLFLQLQILNQQQQQQQQQHYNYQAILPAPPKPSAETPGSSAPTPSRSLSTSSSPSSGTPGPSGLARQSSTALAAKPGALPANLDDMKVAELKQELKLRSLPVSGTKTELIERLRAYQDQVSPAPGAPKAPATTSVLSKAGEVVVAFPAALLSTGSALVTAGLAPAEMVVATVTSNGMVKFGSTGSTPPVSPTPSERSLLSTGDENSTPGDAFGEMVTSPLTQLTLQASPLQIVKEEGARAASCCLSPGARAELEGLDKDQMLQEKDKQIEELTRMLQQKQQLVELLRLQLEQQKRAQQPAPASSPVKRESGFSSCQLSCQPQGSAHAFGSGLVVPTTNHGDTQAPAPESPPVVVKQEAGPPEPDLAPSSQLLLGSQGTSFLKRVSPPTLVTDSTGTHLILTVTNKSADGPGLPAGSPQQPLSQPGSPAPGPPAQMDLEHPPQPPFATPTSLLKKEPPGYEETVTQQPKQQENGSSSQHMDDLFDILIQSGEISADFKEPPSLPGKEKSPPAAAAYGPPLTPQPSPLSELPQAAPPPGSPTLPGRLEDFLESSTGLPLLTSGHEGPEPLSLIDDLHSQMLSSSAILDHPPSPMDTSELHFAPEPSSGMGLDLAVGHLDSMDWLELSSGGPVLSLAPLSTAAPSLFSMDFLDGHDLQLHWDSCL

Variants of: B1
Settings: with acts_rabit ACTA1, P68135

effect of a mutation on the interaction | Variant
disrupting interaction | G114E;P115Q;L118A;I123A;L124A

Variants of: B1
Settings: with acts_rabit ACTA1, P68135
Remark: another data set of the same source

effect of a mutation on the interaction | Variant
disrupting interaction | R24A

Variants of: B1
Settings: with acts_rabit ACTA1, P68135
Remark: another data set of the same source

effect of a mutation on the interaction | Variant
disrupting interaction | L61A;I65A

Variants of: B1
Settings: with acts_rabit ACTA1, P68135
Remark: another data set of the same source

effect of a mutation on the interaction | Variant
increasing interaction | G114E;P115R

Variants of: B1
Settings: with acts_rabit ACTA1, P68135
Remark: another data set of the same source

effect of a mutation on the interaction | Variant
disrupting interaction | L105A;I109A

Variants of: B1
Settings: with acts_rabit ACTA1, P68135
Remark: another data set of the same source

effect of a mutation on the interaction | Variant
disrupting interaction | L74A;I79A;L80A

Variants of: B1
Settings: with acts_rabit ACTA1, P68135
Remark: another data set of the same source

effect of a mutation on the interaction | Variant
disrupting interaction | L118A;I123A;L124A

Variants of: B1
Settings: with acts_rabit ACTA1, P68135
Remark: another data set of the same source

effect of a mutation on the interaction | Variant
disrupting interaction | R24D;R25D

Variants of: B1
Settings: with acts_rabit ACTA1, P68135
Remark: another data set of the same source

effect of a mutation on the interaction | Variant
disrupting interaction | R68A

Variants of: B1
Settings: with acts_rabit ACTA1, P68135
Remark: another data set of the same source

effect of a mutation on the interaction | Variant
decreasing interaction | P69R

Variants of: B1
Settings: with acts_rabit ACTA1, P68135
Remark: another data set of the same source

effect of a mutation on the interaction | Variant
disrupting interaction | R112A
